Laboratory results published in US20190212343A1, “METHODS FOR THE TREATMENT OF DISORDERS RELATED TO PHOSPHORYLATION OF HISTONES” (H. LEE MOFFITT CANCER CENTER AND RESEARCH INSTITUTE, INC., priority 2014, published 2019).

Columns and labels:
[1] = tested on: histone H3 Tyr99-phosphorylation (ACK1); assay: Histone H3 Tyr99-phosphorylation in HEK293 cells (pY99-H3 immunoprecipitation / H3 immunoblot); format: cell-based; conditions: HEK293 cells treated with EGF ligand
Procedure: FIGS. 3A-3E show Ack1 phosphoryltes H3 at Tyr99 residue. […] (FIG. 3B) HEK293 cells co-expressing Myc-tagged Ack1 (WT) or KD mutant ACK1 and FLAG-tagged H3 or Y99F mutant […] were serum-starved (24h) and lysates were immunoprecipitated with pY99-H3 antibodies followed by immunoblotting with FLAG antibody (top panel). (FIG. 3C) HEK293 cells were treated with EGF ligand for indicated time points. Equal amounts of lysates were immunoprecipitated pY99-H3 antibodies followed by with immunoblotting with H3 antibody (top panel). (FIG. 3D) HEK293 cells were treated with ACK1 inhibitor, AIM-100 (5 uM overnight) and/or EGF ligand 20 min. Equal amounts of lysates were immunoprecipitated pY99-H3 antibodies followed by with immunoblotting with H3 antibody (top panel). […] (FIG. 3E) HEK293 cells were treated with increasing concentrations of AIM-100 (1, 2, 3 and 5 μM). Equal amounts of lysates were immunoprecipitated pY99-H3 antibodies followed by with immunoblotting with H3 antibody (top panel).
The Tyrosine99 or Y99 site in H3 protein is evolutionarily conserved (FIG. 3A). To examine whether H3 is ACK1 kinase substrate, HEK293 cells were co-transfected with HA-tagged ACK1 and FLAG-tagged H3 or FLAG-tagged Y99F mutant H3 expressing constructs. ACK I specifically phosphorylated H3 protein, but not the Y99F mutant protein (FIG. 3B). […]

SLC6A4 mRNA = SLC6A4 mRNA expression (real time RT-PCR); format: cell-based, human; conditions: JAR cells treated with EGF ligand
Procedure: The ratio of SLC6A4 to actin is shown. (FIG. 5D) JAR cells were treated with EGF ligand and ChIP was performed using pY99-H3 antibodies followed by quantitative PCR using primers corresponding to intron 2 (VNTR). […]
Applicant also identified for the first time that human and mouse serotonin transporter (SLC6A4 or SERT or 5-HTT) gene expression is regulated by ACK1. A novel mechanism was identified that is operational in SLC6A4 gene regulation. ACK1 deposits pY99-H3 epigenetic marks in promoter (5-HTTLPR) and intron 2 (VNTR) of SLC6A4 gene to regulate its transcription. […] Without being bound by theory, applicant believes that expression of Gabra6, Slc6a2, Slc6a4, Slc6a5 and Oxt genes as well as genes shown in Table 2 are also regulated by ACK1/pY99-H3 epigenetic activity/signaling.

[2] = tested on: pY99-H3 marks at SLC6A4 promoter (5-HTTLPR) and intron 2 (VNTR); assay: ChIP with pY99-H3 antibodies and real time PCR at SLC6A4 gene in JAR cells; format: cell-based, human; conditions: EGF treatment
Procedure: (§1) FIGS. 5A-5D show ACK1 deposits pY99-H3 epigenetic marks in SLC6A4 promoter and intron 2. (FIG. 5A) Lysates prepared from JAR cells treated with EGF ligand were subjected to immunoblotting with indicated antibodies. (FIG. 5B) Lysates prepared from JAR cells treated with EGF or AIM-100 were subjected to immunoblotting with indicated antibodies. (FIG. 5C) Total RNA was prepared from JAR cells untreated or treated with EGF ligand followed by quantitative RT-PCR using SLC6A4 and actin primers. The ratio of SLC6A4 to actin is shown. (FIG. 5D) JAR cells were treated with EGF ligand and ChIP was performed using pY99-H3 antibodies followed by quantitative PCR using primers corresponding to intron 2 (VNTR).
Applicant hypothesized that ACK1 deposits pY99-H3 epigenetic marks in promoter (5-HTTLPR) and intron 2 (VNTR) of SLC6A4 gene to regulate its transcription. To test this hypothesis, applicant performed chromatin immunoprecipitation (ChIP) with pY99-H3 antibodies followed by real time PCR for primers corresponding to promoter (5-HTTLPR) and intron 2 (VNTR) of SLC6A4 gene.

[3] = tested on: histone H3 Tyr99-phosphorylation (ACK1); assay: Histone H3 Tyr99-phosphorylation in JAR cells (immunoblotting); format: cell-based, human; conditions: EGF alone
Procedure: as §1
(§2) JAR cells are human placenta-derived epithelial cells that express SLC6A4 or SERT. Applicant first assessed presence of ACK1 signaling in JAR cells by treating these cells with EGF ligand. […] ACK1 activation was also reflected in histone H3 Tyr99-phosphorylation (FIG. SA, 2nd panel).
To validate critical role of ACK1 in histone H3 Tyr99-phosphoryation, JAR cells were treated with EGF or EGF+AIM-100.

ACK1 = ACK1 activation (phosphorylation) in JAR cells, immunoblotting; format: cell-based, human; conditions: 10 min of treatment
Procedure: as §1, §2

B1: EGF: EGF ligand used to activate ACK1 (protein, UniProt P01133 23-1207, looked up)
Pro-epidermal growth factor: PQHWSCPEGTLAGNGNSTCVGPAPFLIFSHGNSIFRIDTEGTNYEQLVVDAGVSVIMDFHYNEKRIYWVDLERQLLQRVFLNGSRQERVCNIEKNVSGMAINWINEEVIWSNQQEGIITVTDMKGNNSHILLSALKYPANVAVDPVERFIFWSSEVAGSLYRADLDGVGVKALLETSEKITAVSLDVLDKRLFWIQYNREGSNSLICSCDYDGGSVHISKHPTQHNLFAMSLFGDRIFYSTWKMKTIWIANKHTGKDMVRINLHSSFVPLGELKVVHPLAQPKAEDDTWEPEQKLCKLRKGNCSSTVCGQDLQSHLCMCAEGYALSRDRKYCEDVNECAFWNHGCTLGCKNTPGSYYCTCPVGFVLLPDGKRCHQLVSCPRNVSECSHDCVLTSEGPLCFCPEGSVLERDGKTCSGCSSPDNGGCSQLCVPLSPVSWECDCFPGYDLQLDEKSCAASGPQPFLLFANSQDIRHMHFDGTDYGTLLSQQMGMVYALDHDPVENKIYFAHTALKWIERANMDGSQRERLIEEGVDVPEGLAVDWIGRRFYWTDRGKSLIGRSDLNGKRSKIITKENISQPRGIAVHPMAKRLFWTDTGINPRIESSSLQGLGRLVIASSDLIWPSGITIDFLTDKLYWCDAKQSVIEMANLDGSKRRRLTQNDVGHPFAVAVFEDYVWFSDWAMPSVMRVNKRTGKDRVRLQGSMLKPSSLVVVHPLAKPGADPCLYQNGGCEHICKKRLGTAWCSCREGFMKASDGKTCLALDGHQLLAGGEVDLKNQVTPLDILSKTRVSEDNITESQHMLVAEIMVSDQDDCAPVGCSMYARCISEGEDATCQCLKGFAGDGKLCSDIDECEMGVPVCPPASSKCINTEGGYVCRCSEGYQGDGIHCLDIDECQLGEHSCGENASCTNTEGGYTCMCAGRLSEPGLICPDSTPPPHLREDDHHYSVRNSDSECPLSHDGYCLHDGVCMYIEALDKYACNCVVGYIGERCQYRDLKWWELRHAGHGQQQKVIVVAVCVVVLVMLLLLSLWGAHYYRTQKLLSKNPKNPYEESSRDVRSRRPADTEDGMSSCPQPWFVVIKEHQDLKNGGQPVAGEDGQAADGSMQPTSWRQEPQLCGMGTEQGCWIPVSSDKGSCPQVMERSFHMPSYGTQTLEGGVEKPHSLLSANPLWQQRALDPPHQMELTQ
modifications: Pro-epidermal growth factor
- endogenous H3 Tyr99-phosphorylation [1]: significant upregulation in endogenous H3 Tyr99-phosphorylation
- SLC6A4 mRNA levels (SLC6A4 mRNA): significant increase in SLC64A mRNA levels
- deposition of pY99-H3 marks at promoter (5-HTTLPR) and intron 2 (VNTR) of SLC6A4 gene [2]: significant increase in deposition of pY99-H3 marks
- histone H3 Tyr99-phosphorylation [3]: significant upregulation of histone H3 Tyr99-phosphoryation
- ACK1 activation (phosphorylation) (ACK1): robust ACK1 activation
